# In patent US20210198672A1, “APTAMER FOR SCLEROSTIN AND USE THEREOF” (APTACURE THERAPEUTICS LIMITED, published 2021):
# What was measured:
# [1] = target: T1, sclerostin (SOST), expressed from plasmid in MC3T3-E1 cells (UniProt Q9BQB4 SEQ:1-190); experiment: cell_activity; TOP-Wnt luciferase reporter, MC3T3-E1
# Description: (§1) MC3T3-E1 cells were seeded in 24-well plates and cells were transfected with corresponding reporter plasmid (100 ng), Wnt3a plasmid (800 ng) and sclerostin plasmid (800 ng) as necessary using FuGENE HD transfection reagent (Promega) in the following day. 10 hours after transfection, culture medium was changed to fresh medium and cells were treated with aptamers/antibody. 24 hours after treatment, each well of cells was lysed with 100 μl passive lysis buffer and 20 μl was taken for analysis. The Luciferase Assay Reagent II and Stop & Glo Reagent were prepared and added automatically by SpectraMax i3x Multi-Mode Detection Platform (Molecular Device) according to the manufacturer's protocol (Promega) and data was analyzed accordingly (Grentzmann, Ingram et al. 1998, McNabb, Reed et al. 2005).
# The inhibition to sclerostin was dose dependent and the response was stable when the concentrations of aptscl 56 and 6 reached to 25 and 47.4 μg/ml, respectively. While treated with antibody, the response was still not stable with the concentration increasing to 20 mg/ml. Furthermore, the inhibition potency of aptscl 56, aptscl 6 and aptscl 3 was analyzed with non-linear curve fitting.
# [2] = target: T2, sclerostin (SOST) (Homo sapiens, UniProt Q9BQB4 SEQ:1-190); experiment: ELONA; PBS, 1 mM MgCl2, 0.1% Tween 20, 0.1% BSA, RT; conditions: tags: His6 (stated for the SELEX protein); ELONA used purified recombinant human sclerostin
# Description: (§2) An Enzyme-linked OligoNucleotide Assay (ELONA) was performed to determine the binding affinity of the aptamer candidates to sclerostin (Drolet, Moon-McDermott et al. 1996). Similarly, an Enzyme-linked ImmunoSorbent Assay (ELISA) was performed to determine the binding affinity of anti-sclerostin antibody to human sclerostin (Engvall and Perlmann 1971). 160 ng purified recombinant human sclerostin was coated to 96-well microtiter plate in 100 μl PBS by incubating at 4° C. overnight. The plate was then blocked with blocking buffer (PBS, 0.1% Tween 20 and 1% BSA) for 1 h at room temperature and washed with SELEX B&W buffer (PBS, 1 mM MgCl₂, 0.1% Tween 20 and 0.1% BSA) for 4 times. The aptamer candidates were denatured at 95° C. for 10 min and rapidly cooled on ice for 10 min before use. Appropriate concentrations of biotinylated aptamers/antibody were added into each well, then added SELEX B&W buffer to 100 μl and incubated for 45 min at room temperature with continuous gentle shaking. After binding, the plate was washed with SELEX B&W buffer for 4 times to remove non-specific and very weak binding, followed by washing with PBST+0.1% BSA for 4 times. […] Absorbance at 450 nm was measured with microplate reader (Stoltenburg, Krafcikova et al. 2016). Data was analyzed with Origin software (OriginLab, Northampton, Mass.). […]
# [3] = target: T2, sclerostin (SOST); experiment: ELONA; PBS, 1 mM MgCl2, RT; conditions: tags: His6 (stated for the SELEX protein); ELONA used purified recombinant human sclerostin
# Description: (§3) An Enzyme-linked OligoNucleotide Assay (ELONA) was performed to determine the binding affinity of the aptamer candidates to sclerostin (Drolet, Moon-McDermott et al. 1996). Similarly, an Enzyme-linked ImmunoSorbent Assay (ELISA) was performed to determine the binding affinity of anti-sclerostin antibody to human sclerostin (Engvall and Perlmann 1971). 160 ng purified recombinant human sclerostin was coated to 96-well microtiter plate in 100 μl PBS by incubating at 4° C. overnight. The plate was then blocked with blocking buffer (PBS, 0.1% Tween 20 and 1% BSA) for 1 h at room temperature and washed with SELEX B&W buffer (PBS, 1 mM MgCl₂, 0.1% Tween 20 and 0.1% BSA) for 4 times. The aptamer candidates were denatured at 95° C. for 10 min and rapidly cooled on ice for 10 min before use. Appropriate concentrations of biotinylated aptamers/antibody were added into each well, then added SELEX B&W buffer to 100 μl and incubated for 45 min at room temperature with continuous gentle shaking. After binding, the plate was washed with SELEX B&W buffer for 4 times to remove non-specific and very weak binding, followed by washing with PBST+0.1% BSA for 4 times. 100 μl streptavidin-HRP/goat anti-human IgG Fc-HRP (1:10000 dilute into PBST+0.1% BSA) was added to each well and incubated for 30/60 min and washed with PBST+0.1% BSA for 4 times. 50 μl TMB was added to each well and incubated for 20 min. The reaction was stopped by adding 50 μl 2 M H₂SO₄. Absorbance at 450 nm was measured with microplate reader (Stoltenburg, Krafcikova et al. 2016). Data was analyzed with Origin software (OriginLab, Northampton, Mass.). A non-linear curve fitting model Hyperbl was used to plot is the binding curve. Equation of Hyperbl model is y=P1*x/(P2+x) and P2 is the Kd value.
# [4] = target: T2, sclerostin (SOST); experiment: ELONA; PBS, 1 mM MgCl2, RT; conditions: tags: His6 (stated for the SELEX protein); ELONA used purified recombinant human sclerostin; remark: listed apart in the source
# Description: as §3
# (§4) Binding affinity and in vitro inhibition potency were performed using the same protocols in previous studies.
# [5] = target: T2, sclerostin (SOST); experiment: ELONA; PBS, 1 mM MgCl2, RT; Table 2 gives 0.02 nM; conditions: tags: His6 (stated for the SELEX protein); ELONA used purified recombinant human sclerostin
# Description: as §2
# [6] = target: T1, sclerostin (SOST), expressed from …; experiment: cell_activity; TOP-Wnt luciferase reporter, MC3T3-E1; remark: listed apart in the source
# Description: as §1, §4
# [7] = target: T1, sclerostin (SOST), expressed from …; experiment: cell_activity; TOP-Wnt luciferase reporter; stated as inhibition potency
# [8] = target: T2, sclerostin (SOST); experiment: ELONA; PBS, 1 mM MgCl2, RT; conditions: tags: His6 (stated for the SELEX protein); ELONA used purified recombinant human sclerostin; remark: listed apart in the source
# T1 sequence (Q9BQB4 24-213): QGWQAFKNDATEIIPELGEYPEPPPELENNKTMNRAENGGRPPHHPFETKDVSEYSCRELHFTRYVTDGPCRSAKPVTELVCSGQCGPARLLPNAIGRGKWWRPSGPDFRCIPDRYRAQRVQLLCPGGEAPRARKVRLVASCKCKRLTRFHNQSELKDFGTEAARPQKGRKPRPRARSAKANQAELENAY
# T2 sequence (Q9BQB4 24-213): as above
binder,measurement,setting,value
CGGGGTGTGGGTTCGTCGTTAGCTTGATTTGGCAGCTGCC (ssDNA) [aptscl 56],EC50,[1],19.7 µg/mL
same,Kd,[2],43.1 nM
aptscl 22 (ssDNA) DNA: CGTACGGTCGACGCTAGCTGGGTTTATCGACTAGTTCCACGTGGAGCTCGGATCC,Kd,[3],0.76 nM
GTCGACGCTAGCTGTTGTACATCGCCTTACGCACGTG (ssDNA) [aptscl 3-4],Kd,[4],0.22 nM
GCTAGCTGTTGTACATCGCCTTACGCACGTGGAGCTC (ssDNA) [aptscl 3-3],Kd,[4],0.2 nM
aptscl 3 (ssDNA) DNA: CGTACGGTCGACGCTAGCTGTTGTACATCGCCTTACGCACGTGGAGCTCGGATCC,EC50,[1],18.2 µg/mL
same,Kd,[5],0.04 nM
aptscl 32 (ssDNA) DNA: CGTACGGTCGACGCTAGCTGTGTTAATCGCCGTACCTCCACGTGGAGCTCGGATCC,Kd,[3],0.18 nM
CCCAGACGAGACACCTCATGCTTTTCCCCGGGGGAGGGGTAT (ssDNA) [aptscl 132],Kd,[3],42.2 nM
aptscl 5 (ssDNA) DNA: CGTACGGTCGACGCTAGCTGTTGTTCATCGACTTGACGCACGTGGAGCTCGGATCC,Kd,[3],0.005 nM
aptscl 1 (ssDNA) DNA: CGTACGGTCGACGCTAGCTCTTGTTCATCGATCCTACGCACGTGGAGCTCGGATCC,Kd,[3],0.02 nM
aptscl 6 (ssDNA) DNA: CGTACGGTCGACGCTAGCTGGAAGGGTGGGGGCGGGGGGTCCTCGCCTCGAACGTACGCACGTGGAGCTCGGATCC,EC50,[1],36.8 µg/mL
same,Kd,[3],4.2 nM
aptscl 9 (ssDNA) DNA: CGTACGGTCGACGCTAGCTGGGGGTAGGGGGACCCTGGCTAGTTAGTCACCGTTTCGACACGTGGAGCTCGGATCC,Kd,[3],3.4 nM
GCTAGCTGTTGTACATCGCCTTACGCACGTG (ssDNA) [aptscl 3-5],EC50,[6],28.4 µg/mL
same,Kd,[4],0.22 nM
"GCTAGCTGTTGTACATCGCCTTACGCACGTG (ssDNA, 2'-OMe at first four (GCTA) and last four (CGTG) nucleotides; 3' idT) [modified aptscl 3-5]",EC50,[7],11 µg/mL
same,Kd,[8],0.54 nM
aptscl 12 (ssDNA) DNA: CGTACGGTCGACGCTAGCCGTTGACTCGTTGCTACACGTGGAGCTCGGATCC,Kd,[3],0.005 nM
aptscl 29 (ssDNA) DNA: CGTACGGTCGACGCTAGCCGGAGACCTGAGGTTCACGTGGAGCTCGGATCC,Kd,[3],0.28 nM
GTCGACGCTAGCTGTTGTACATCGCCTTACGCACGTGGAGCTCGGATCC (ssDNA) [aptscl 3-1],Kd,[4],0.86 nM
aptscl 8 (ssDNA) DNA: CGTACGGTCGACGCTAGCCGGCGAAATTGCTACCACGTGGAGCTCGGATCC,Kd,[3],0.005 nM
aptscl 51 (ssDNA) DNA: CGTACGGTCGACGCTAGCTGGGGGTAGGGGGTCCTTGGCTACGGTGATTCGGATGTGACACGTGGAGCTCGGATCC,Kd,[3],62.2 nM
CGTACGGTCGACGCTAGCTGTTGTACATCGCCTTACGCACGTGGAGCTC (ssDNA) [aptscl 3-2],Kd,[4],0.52 nM
"CGGGGTGTGGGTTCGTCGTTAGCTTGATTTGGCAGCTGCCC (ssDNA, 2'-OMe at first four (CGGG) and last four (GCCC) nucleotides; 3' idT) [modified aptscl 56]",EC50,[7],14 µg/mL
same,Kd,[8],6.55 nM
aptscl 2 (ssDNA) DNA: CGTACGGTCGACGCTAGCCAGCCAAAGACAGAGATGCACGTGGAGCTCGGATCC,Kd,[3],0.006 nM
